{
  "source": "the DeepSol protein solubility set",
  "data": [
    {"test": "soluble on expression in E. coli; label from the status in PepcDB or PDB records", "values": [
      {"sequence": "MIDDIRYLIVFAKIAETGSVSGGAEALGLSAATASLHLSRLERNLGRALLYRNSRKLSLTQDGTQLLDTARSMLELYEKGFIEFRQRAVSTRNSLRISMPAVFVNGDFTRHLAAFIEEHPDLDLGIACDDSRHDIIGDGIDIAFRIGDLPDSSLKARHLFLLPRQVVAAPAFLARHAPLEHPRDLQRLEWIGLGMRPDSRLFRHARDDEEVRVDYTPRVRVDSVEASCRLARLGVGLAAPPTYLSDEPIRRGELRAVLPEWRLEPLKVYAVWPPNVPASSIAYTLINRLYEAFNPG", "soluble on expression in E. coli": "not soluble"},
      {"sequence": "MGHHHHHHSHLPGNTRKMDKTTVLEKVIGFLQKHNEVSAQTEICDIQQDWKPSFLSNEEFTQLMLEALDGFIIAVTTDGSIIYVSDSITPLLGHLPSDVMDQNLLNFLPEQEHSEVYKILSSHMLVTDSPSP", "soluble on expression in E. coli": "soluble"},
      {"sequence": "MEPNNLKEELVSVFEKACSSHKERLDFICSVRESDTFSNVDVPLAPIKTIIEIAKNEENQTEILKLAIENIKTLSTVGSGQYIASHFSTHNEVAIIFCISYFLYHFNFLHDENKKQLLKRAFEAVAEKIADYLNEN", "soluble on expression in E. coli": "soluble"},
      {"sequence": "MDNTRIMAAREAGVKVEANVHNFNDRLSSKERIRFKHDGIEPQTWGEAIQLRIRKQETQKGVPEGWSKRFPNGSIYDVKVLRK", "soluble on expression in E. coli": "not soluble"},
      {"sequence": "MGSDKIHHHHHHMAYGGRITLNVRIALVGEELEIRENVNIEIEEGIITHIGNGFSSEGITFKNGILIPGIVNAHVHSADFICQEMGYNMPISKVVGDPHSVKYECFAKNTKESIMNSIERFVLRARELGSNVMIDFREQGLEGSLISSTIKKKMATNGVKYYFLGRLEEDEFKDIRNLNSLYKIADGYGLSSAFSTSEIELIKHVFNNKIRSVHVSETIKHWLRDDLEYVMKRYEPNLIIHGTYLSEEEIDIMRYRKASIVYCPRSNLWFSVGIPKVINGLKSGVNLLIGTDNGGVLDPDMWKEMETLLLISRVQDPLSDHSLQILKASTINAYKFLGIRGWIEEGNPIEAGLLVLEGDSTGILNSNNKYIGIIKRGNKIIYNLGAIQKII", "soluble on expression in E. coli": "not soluble"},
      {"sequence": "GPGSMSRQQQAQELQKQWETDPRWKGIKRAFTAEDVVRLRGSIQQEHTLAKRGAEKLWTLINNEPFVNALGALTGNQAMQQVKAGLKAIYLSGWQVAGDANVAGEMYPDQSLYPANSVPLVVKRINNTLTRADQIQWSEGKNPGDEGYVDFFAPIVADAEAGFGGVLNAFELMKAMIEAGASGVHFEDQLASVKKCGHMGGKVLVPTREAVAKLTAARLAADVMGTPTVLVARTDAEAADLITSDIDDNDKPYLTGERTVEGFFRTKPGLEQAISRGLAYAPYADLIWCETGKPDLEYAKKFAEAIHKQFPGKLLSYNCSPSFNWKKNLDDATIAKFQKELGAMGYKFQFITLAGFHALNYSMFNLAHGYARTQMSAFVELQQAEFAAADKGFTAVKHQREVGTGYFDAVTQTVEREASTTALHGSTEDEQFFDGQKVA", "soluble on expression in E. coli": "soluble"},
      {"sequence": "MGSSHHHHHHSSGLVPRGSHMKKNSLALSLTADQMVSALLDAEPPILYSEYDPTRPFSEASMMGLLTNLADRELVHMINWAKRVPGFVDLTLHDQVHLLECAWLEILMIGLVWRSMEHPVKLLFAPNLLLDRNQGKCVEGMVEIFDMLLATSSRFRMMNLQGEEFVCLKSIILLNSGVYTFLSSTLKSLEEKDHIHRVLDKITDTLIHLMAKAGLTLQQQHQRLAQLLLILSHIRHMSNKGMEHLYSMKCKNVVPLYDLLLEMLDAHRLHAP", "soluble on expression in E. coli": "not soluble"},
      {"sequence": "MDEGDKKSPISQVHEIGIKRNMTVHFKVLREEGPAHMKNFITACIVGSIVTEGEGNGKKVSKKRAAEKMLVELQKL", "soluble on expression in E. coli": "soluble"},
      {"sequence": "MSLTQTILVIDDDAAVRGSFQLVLGEIGCVVRVAEDGLQGIAMAREERPDLIFLDLKMPGIDGVETMRRLLAMDPTFNIYIVTAFSQEYLDDLKQAQAEGMTFQLANKPLSSTQIRHIARSVRSLSNVSKDNHRISLTLYVVSVNPEIQKVVDQLSNVLAATYRAGFWVLNVVEVLGMPEKALEKDVFATPMLVREVPEPVLKLLGDLSRMHSVLSAITAENGHGAGTEGHHHHHH", "soluble on expression in E. coli": "soluble"},
      {"sequence": "EVQLLESGGGLVQPGGSLRLSAAASGFTFSTFSMNWVRQAPGKGLEWVSYISRTSKTIYYADSVKGRFTISRDNSKNTLYLQMNSLRAEDTAVYYVARGRFFDYWGQGTLVTVS", "soluble on expression in E. coli": "soluble"},
      {"sequence": "ITTKKGQEGKPAINVRTEFGFTAPTKRPEMINSAQWAELYNEASGTNYYSPEVIQKYRDHSDPDLYPDVDWFDALFDDMAENQRVNLSVTGGGDNIKYYVSGSFYNESSIYKNAGNIYGYNSAIRYNKFNFRANVDLNVTKSTTLNVNLANIYEKSFGPGFGDNDNDIWSYTFNASPNAFPVQYSDGTLSGPSTDSGHNPWNMLVHSGYREQFWNSAQSLIGLTQDFGKIWEPLEGLTANIKFSWDAWNTTLQRRSKSPSFYHARGRDAEGRLMYDDNNNDGEWDPVHTGSESLGYEIGRQGTMTRYLEGSLNYNRLFGNHRVGALFLYNQKIHTNTQAADGNAALPYKNQGLAGRVTYAFRDTYFAEVNMGYNGSENFARGHRFGFFPAFALGWMVSNEKWFEPLTKTIDMLKLKGSYGKVGNDDIGGQRRWVYESTIVGTGDQGWWFGQSGNQGGAGIRVGEIENLYASWEEATKLNLGVEFSLFNKVKVQADYFREERQGIFLQRAGLPAIVGLSTIPYVNIGRTLNKGFDANVEYNHQIGKVFLTARGNFTFSRNKLLDNDEPDWEYKYQNRIGKPFGSDGQMQPFGLVALGLFQSQEEIDNSPRQTFGEYRVGDIKYQDINGDGIIDTQDEVAIGYTNLPEIMYGFGLGAQWKNWDINAFFQGSAHTSFFLDGVSVKSPFSSGNMERAAINKDLWGKVWMSTNSPEQNAHVTYPRLSNGSGGAGASNNNKNSTWWLRNGSFLRLKNIEIGYTLPKEFVTKTFIKSLRFYVSGNNLLTFSSFKLWDPEKAKGSSDGSGYPLNRVVTVGFNANF", "soluble on expression in E. coli": "not soluble"},
      {"sequence": "ICMNVENEVTHTQLQFNHTDKYCGNIKNLISCKLYQHALTLIDSFRHDKSI", "soluble on expression in E. coli": "not soluble"},
      {"sequence": "MMKQHLDALKDSKYCPLWHDQDIRPETLPALSADTSCELLIVGGGFTGLWGALQAKERQPDADIILIEKTTISDGASGRNGGFLSSSLAHGETNTDHQFPGEADKLHQLGQQNLKEFIETLEHYNIDARYEKVGETSVATDQASVDALRATYESEKAQGEDVVWFNQEEMQAQVNSPTYLAGLWYRGGQDGVVDPARLCWGLKRVILELGVRIYEETPLTSLKKLGQDKMEVTCSDVKIISDKVLMATNAYRNPIGQARRSIIPVWDYQIATQPLSQEQLDSIGWHKSRHALSNHANMFHYYRFTKDNRITWGGGGAVRYYFNNGIDQSYADIPERFAQLSEEFFETFPQLKGIKFTHRWSGIIATSTRFCVVPGVAYDGRVAWAIGYTGLGVGASRFGARIGIELLGYKPSEILDMQFVKKKPIPWAPEPLRWIGVYLTHKALEKADANGGKRGLWLKLLDMLNLGFTCLEHHHHHH", "soluble on expression in E. coli": "not soluble"},
      {"sequence": "MVLWVFGYGSLIWNPGFDFDEKLIGYIKDYKRVFDLACIDHRGTPEHPARTCTLEQSTGAICWGAAYCVRGGPEKEKLAMEYLERRECEYDSKTLVEFYTENDTSTPIVTGVIVFTSTPDKVSNKYYLGPAPLEEMARQIATASGPCGNNREYLFKLEKAMFDIEHEEEYVIELANEVRKQLDLPEEVKALLKPIVSHVSVKSQAHVSTRQRVFAS", "soluble on expression in E. coli": "soluble"},
      {"sequence": "MGSDKIHHHHHHMMAVLHRSSDIIAATICRILIPQFYSDNTVPINGNYSCIFLLSYMFPLDSPLLADLYKKYRSRLISRIARLTGCRETAADLAQDAYMRLLDQTGVACPSNPAAYLFRIGRNLAIDHQRRPDFRQHDETSFEEELPSSFSGLDQQAVYRQECEQLWTAIMELPRPVSRALVLSVIEGVSQAAIAEELGVTERTVRRYISKGMAHCQRRLRNPLPPARYDR", "soluble on expression in E. coli": "not soluble"},
      {"sequence": "MAHHHHHHMVNTLLNYSESIQLGDELSNLLEFTREMNAYLRGTQVAESDVLREAHNSFAPTEFFVLHDETPDASDVYHFVSFVYKNGAVWELDGLQKGPILAADATDGNYKEKLVEVVQKRVIDKSAADNTGTGQGISFSLMAVVDDRLLQLEKEIEEAKAREEPTAYLAEQLEELRLQREKGRAENQRRRHNYVPMIVELLKALAEKGKLEGIVEEALAKKAASASSDRS", "soluble on expression in E. coli": "soluble"},
      {"sequence": "GMSTPTPDTDVEQVGLANTAFYEAMERGDFETLSSLWLTPADLGVDEEYHDPADAGVVSCVHPGWPVLSGRGEVLRSYALIMANTEYIQFFLTDVHVSVTGDTALVTCTENILSGGPPPDDSDELGPLVGQLVVATNVFRRTPDGWKLWSHHASPVLAETGAEEGDESPD", "soluble on expression in E. coli": "soluble"},
      {"sequence": "MSLPWLHRETARSFGGAGSTAGYEQVTAYTLTGQLQSRHLNLPQLDCDYDWNDNGQLIRISGPQESREYRYSDTGRLTGVHTTAANLDIDIPYATDPAGNRLPDPELHPDSTLTAWPDNRIAEDAHYVYRYDEYGRLTEKTDRIPEGVIRMHDERTHHYHYDNQHRLVFYTRIQYGEPLVESRYLYDPLGRRTGKRVWRRERDLTGWMSLSRKPEVTWYGWDGDRLTTVQTGTTRIQTVYRPGSFTPLIRIETENGEREKAQRRSLAEKLQQEGSEDGHGVVFPAELVRMLDRLEEEIRADRVSSESRAWLAQCGLTVEQLEKQVEPEYTPARTLHLYHCDHRGLPLALISEDGNTAWSAEYDEWGNQLNEENPHHLHQPYRLPGQQHDEESGLYYNRHRYYDPLQGRYITPDPIGLRGGWNMYQYPLNPIQVIDPMGLDAIENMTSGGLIYAVSGVPGLIVANSITNSAYQFGYDMDAIVGGAHNGAADAMRYCYLMCRMTKTEGHHHHHH", "soluble on expression in E. coli": "soluble"},
      {"sequence": "MGSDKIHHHHHHMKVVPAQRCVYSFSANMAPVEEVYPGEQVVFETLDALGGSYDKIDFSKVNPATGPVFVNGVKPGDTLKVRIKRIELPRRGMIVTGKGFGVLGDEVEGFHTKELEIEKWAVLFDGVRIPIHPMVGVIGVAPQEGEYPTGTAHRHGGNMDTKEITENVTVHLPVFQEGALLALGDVHATMGDGEVCVSACEVPAKVVVEIDVSKEEIKWPVVETNDAYYIIVSLPDIEEALKEVTRETVWFIQRRKTIPFTDAYMLASLSVDVGISQLVNPAKTAKARIPKYIFTGV", "soluble on expression in E. coli": "soluble"},
      {"sequence": "MSLNGSSIIEFEDMTWSQQVEDSKKPVVVMFYSPACPYCKAMEPYFEEYAKEYGSSAVFGRINIATNPWTAEKYGVQGTPTFKFFCHGRPVWEQVGQIYPSILKNAVRDMLQHGEECIRKSTPVGQDITGYVEGHHHHHH", "soluble on expression in E. coli": "soluble"},
      {"sequence": "MSLVGGFPHHPVVHHEGYPFAAAAAAAAAAAASRCSHEENPYFHGWLIGHPEMSPPDYSMALSYSPEYASGAAGLDHSHYGGVPPGAGPPGLGGPRPVKRRGTANRKERRRTQSINSAFAELRECIPNVPADTKLSKIKTLRLATSYIAYLMDLLAKDDQNGEAEAFKAEIKKTDVKEEKRKKELNEILKSTVSSNDKKTKGRTGWPQHVWALELKQ", "soluble on expression in E. coli": "not soluble"},
      {"sequence": "MGSDKIHHHHHHMQLPSLQSATLIRRYKRFLADVQLPSGDITTLHCANTGAMIGCGSQGDTLWYSTSDSATRKYPSSWELTQLANGHLVCINTHRSNQLTFDALQKKQIIELAMYDKIYPEVKYGEENSRIDFLLKGKDLPDCYVEVKSITYVDNDKKLGMFPDAVTTRGQKHLRELISMKKQGHRAVIFFCGLHDGFDHFQIAKHIDARYDELLHQALKEGVEAYAYAAEFEKTQGIPTALNLTKVAPFKAG", "soluble on expression in E. coli": "not soluble"},
      {"sequence": "MLAFGPVPSRRLGRSLGVNNIPAKICSYACVYCQIGKTLKMEVERRKFYEPERIYNDVSAKVKSGERIDYITFVPDGEPTLDINLGKEAEMLRDFGIKLAILTNSSLIWREDVREDLMNFDLVSLKLDAVSDDIWRKVNRPHKSLSLEKILEGMLDFRKEFKGTIITETMLINIDYGEELEKIATFLKELKPDKAYIAIPTRPPAESWVKPASEVIINKAYQLFSEALGEERVEYLIGYEGNAFAFTGNVEEDLLSITAVHPMREEAVRELLRKAGASWDVVEKMIKEGKLIELEYNGKKFYMRKLGSR", "soluble on expression in E. coli": "not soluble"}
    ]}
  ]
}
